Source: the supplement of paper PMC9732359
± gives the uncertainty stated by the source.

Assay: protein stability index of a GFP-peptide fusion (yeast GPS) (PSI 1-4); higher = more stable; sorted into four equal gates, so the index is relative within each strain
Conditions: doa10∆
Procedure, shortened: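 Plasmids in a pooled yeast library fused tiled 17-residue yeast protein peptides downstream of GFP and also expressed Cherry. Mid-log cultures grown without leucine were sorted into four equal gates by GFP/Cherry fluorescence ratio. Each gate's plasmids were PCR-amplified and Illumina-sequenced, and reads were matched to strains by barcodes. The protein stability index is derived by multiplying each gate's read frequency by its gate number and summing the results.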

First: EGIIKPISKHSKQAIYT [RPS25A]
Second: EGKVTKLRRECSNPTCG [RPS31]
The protein stability index of the first is lower: 1.65 ± 0.065 for the first, 3.31 ± 0.11 for the second.

Going from EGLDELPKIIQLQGPQW [SOH1] to EGLSAQIAFDLVSSASQ [RPN2], the protein stability index falls from 3.16 ± 0.068 to 2.6 ± 0.068.

First: EGPKKCIQVNCLNCEKS [SNM1]
Second: EGQLKPGDGSSYINVTF [RPC25]
The protein stability index of the first is lower: 2.62 ± 0.079 for the first, 3.44 ± 0.15 for the second.

EGTPINNVYFAAGALFV [RPN14] and EGWFYKRAASVARHIYM [RPS19A] are within error of each other in protein stability index: 2.2 ± 0.091 for the first, 1.97 ± 0.16 for the second.

Compared with EGYGLRDVMCTDGVIGS [RPO31], EHFLKLNIDFGSDKQMF [YML103C/NUP188] is higher in protein stability index: 2.35 ± 0.11 for the first, 2.61 ± 0.075 for the second.

First: EIDHQEYSPEILQIREE [RRP6]
Second: EIENLDKELRKTKFQYK [YIL149C/MLP2]
The protein stability index of the first is higher: 3.19 ± 0.067 for the first, 2.73 ± 0.081 for the second.

Going from EIEQNTELLDEFIAAVN [RPN10] to EIESIDKLPQFVDENTF [RPN1], the protein stability index falls from 3.36 ± 0.082 to 3.08 ± 0.13.

EIFHLLQPLEEGLIIDT [SIN4] and EIIADWIWDMNVHGSLE [BRR2] are within error of each other in protein stability index: 1.99 ± 0.2 for the first, 1.89 ± 0.1 for the second.

Going from EIILKLCRNPLTSGLLY [YJL039C/NUP192] to EIKKMIITNINAIFLSS [YCG1], the protein stability index rises from 2.21 ± 0.069 to 2.49 ± 0.11.

Compared with EIKNDFIMVKGCIPGNR [RPL3], EILNECHDELKALPMLE [MED4] is higher in protein stability index: 1.1 ± 0.14 for the first, 2.52 ± 0.11 for the second.

First: EILRIHSRKMNLTRGIN [RPT6]
Second: EILVEESGLRPVSLLNS [PCI8]
The protein stability index of the first is higher: 2.85 ± 0.06 for the first, 2.63 ± 0.1 for the second.

Going from EILVLYNVCDTSKSLVK [SIN4] to EINETEFIRCGCLIKNL [RMP1], the protein stability index rises from 2.3 ± 0.05 to 2.48 ± 0.11.

Going from EIPEGVTVSIKSRIVKV [RPL9B] to EIRAKEYKTSSDSLGPD [SRB2], the protein stability index rises from 1.29 ± 0.055 to 2.81 ± 0.087.

Going from EISISFDVNNIDMHLIY [YDL116W/NUP84] to EISLKAHCILGIGGDHA [RPC40], the protein stability index falls from 1.94 ± 0.082 to 1.16 ± 0.18.

EISPQDSIASVLSPDSN [GAL11] and EIVWTSSLIKAGLDKGI [RPO31] are within error of each other in protein stability index: 1.99 ± 0.064 for the first, 1.92 ± 0.047 for the second.

Going from EKAVEEKPAVKSYASLL [RPT3] to EKDFCTSCLQNNNQKID [SRB8], the protein stability index rises from 2.89 ± 0.06 to 3.13 ± 0.09.

Going from EKGLNELSIRDVTHTLG [SMC4] to EKIKMKLKQGQKLFVQV [GAL11], the protein stability index rises from 1.34 ± 0.14 to 2.85 ± 0.13.

Compared with EKKAASAKQTAPNNSNG [MED7], EKKAEYFAKLREYLEEY [RPP0] is higher in protein stability index: 2.94 ± 0.15 for the first, 3.44 ± 0.092 for the second.

Compared with EKKGIVQASVTSSTHER [RET1], EKLKQFSWISVVNDLVG [SIR3] is lower in protein stability index: 3.28 ± 0.19 for the first, 1.61 ± 0.052 for the second.

First: EKLNKTDENTPSADGAD [ITC1]
Second: EKLTLVTLSEIYNELSY [CSN9]
The protein stability index of the first is higher: 3.35 ± 0.098 for the first, 1.48 ± 0.047 for the second.

EKNGGLGWDLDAIIPFA [FAS2] and EKNYDRKEPPATVEECV [PRE6] are within error of each other in protein stability index: 3.14 ± 0.098 for the first, 3.3 ± 0.14 for the second.

Going from EKQIEELLDNCIETFVA [SRB6] to EKSPDPTIRSNAVLGLG [YCS4], the protein stability index falls from 2.62 ± 0.13 to 2.38 ± 0.052.

Compared with EKVRDYENSISKDLRSV [IRR1], ELAKEAKKSTTISKEST [ESC2] is higher in protein stability index: 2.25 ± 0.093 for the first, 2.55 ± 0.13 for the second.

ELDQFWQEYSSVFKGGM [SRP14] and ELEGSFNKSAELSRIEN [YCS4] are within error of each other in protein stability index: 2.68 ± 0.073 for the first, 2.58 ± 0.13 for the second.

Going from ELEQLSSEALEAARICA [RPL10] to ELESMLEDLKNTKEIAV [RRP6], the protein stability index rises from 1.21 ± 0.071 to 2.18 ± 0.08.

First: ELFKDYKPGSITLENIT [MED1]
Second: ELGTAVGKLFRVGVVSI [RPL30]
The protein stability index of the first is higher: 2.53 ± 0.067 for the first, 1.31 ± 0.13 for the second.

ELIIDPLFKKALVDFDE [BRN1] and ELKTRDATNTSYKMIQL [SWP82] are within error of each other in protein stability index: 3.45 ± 0.16 for the first, 3.39 ± 0.1 for the second.

First: ELLANKCPLLVEVDITL [GRR1]
Second: ELLNADHQHILRKLKKM [RPC53]
The protein stability index of the first is higher: 1.44 ± 0.06 for the first, 1.13 ± 0.059 for the second.

ELLSSLEGKGSLEEIIA [RPP2B] and ELNVEKLNTFNLQTFTH [SRP72] are within error of each other in protein stability index: 2.27 ± 0.08 for the first, 2.48 ± 0.2 for the second.

Going from ELSDNEENFEATRTLVA [YCG1] to ELSDSWRAHDSSIVAID [YGL100W/SEH1], the protein stability index falls from 3.13 ± 0.12 to 2.9 ± 0.084.

Going from ELVDMAGAGEANGTVVS [MTR3] to ELVKAHLGERAASVIGM [RPC82], the protein stability index falls from 2.98 ± 0.12 to 2.55 ± 0.29.

First: EMDEKSYEKNEDHVEDH [LIN1]
Second: EMKIGSIESKLEEHKNH [SMC1]
The protein stability index of the first is higher: 3.3 ± 0.11 for the first, 3.03 ± 0.15 for the second.

First: ENELFNDRKQTTVSNDL [SSN2]
Second: ENEVSDIDVTIVSKEYE [ESC2]
The protein stability index of the first is lower: 2.74 ± 0.16 for the first, 3.08 ± 0.13 for the second.

Going from ENHNGQSISNENDVKPI [SWI3] to ENHNKGKLWKDVKARIA [QCR9], the protein stability index rises from 2.07 ± 0.054 to 2.77 ± 0.14.

ENIIQMEMIENRTMDGK [FAS1] and ENLPGLSISVAAEPMDS [SNU114] are within error of each other in protein stability index: 2.78 ± 0.084 for the first, 2.7 ± 0.062 for the second.

Compared with ENPDLSTKKKILGIHTS [RPT2], ENPTPEKGNAKMIDFAT [SIR3] is higher in protein stability index: 2.8 ± 0.14 for the first, 3.1 ± 0.11 for the second.

Going from ENSAVAAKEGLALSSNI [COR1] to EPENNTVIEGVKEESQP [SWI3], the protein stability index rises from 1.84 ± 0.065 to 3.21 ± 0.095.

First: EPHAVSLAWSADGQTLF [ASC1]
Second: EQFYTKDIIDPKLTSIF [RPN2]
The protein stability index of the first is higher: 2.85 ± 0.12 for the first, 2.32 ± 0.11 for the second.

EQHHINNLKNSGNSANN [GAL11] and EQKKTATEVTPQEPKHI [RPC19] are within error of each other in protein stability index: 2.41 ± 0.14 for the first, 2.45 ± 0.054 for the second.

Going from EQKLIDQHVINILWAIY [YCS4] to EQLSEEDAKLKTDLELL [RPN1], the protein stability index rises from 1.87 ± 0.042 to 3.13 ± 0.15.

Going from EQTCVKLLDSGCENPAD [SRP72] to EQVLSAAATFPIAQPAT [RPL13A], the protein stability index falls from 3.26 ± 0.066 to 2.66 ± 0.059.

ERLMSRPFGVALLIAGH [PUP2] and ERPPYILNSYGVLKPDI [SIR2] are within error of each other in protein stability index: 2.81 ± 0.28 for the first, 2.83 ± 0.078 for the second.

Compared with ESGIKPYFEQKIQETEL [RPT6], ESGSTPISISNAPTFNP [YAR002W/NUP60] is lower in protein stability index: 2.93 ± 0.13 for the first, 2.25 ± 0.067 for the second.

Compared with ESKLRDDLERLKKIRAH [RPS18A], ESKLSLETLFNRWHSES [FAS2] is higher in protein stability index: 2.78 ± 0.13 for the first, 3.26 ± 0.084 for the second.

First: ESNVNDSDMLTKSHNTV [NUT1]
Second: ESQLQMDRTSLRKQYSA [SMC3]
The protein stability index of the first is higher: 3.08 ± 0.1 for the first, 2.47 ± 0.08 for the second.

Compared with ESRKAFFLGYMINRLLL [RPB2], ESTTEATGNESQDATKV [YLR335W/NUP2] is higher in protein stability index: 1.17 ± 0.092 for the first, 3.04 ± 0.071 for the second.

First: ESVLPAARYDYAVAEQC [QCR2]
Second: ESYKPSVQLPDMAKLKK [SWI3]
The protein stability index of the first is higher: 3.15 ± 0.11 for the first, 2.94 ± 0.081 for the second.

First: ETGYMSRRLMKSLEDLS [RPO31]
Second: ETIKMKELDQELIIDPL [BRN1]
The protein stability index of the first is lower: 2.45 ± 0.12 for the first, 2.98 ± 0.12 for the second.

First: ETKDIRKQIQLLKKIIF [SRB4]
Second: ETQFKLSRPYKALKTNI [CDC53]
The protein stability index of the first is higher: 2.34 ± 0.052 for the first, 2.19 ± 0.045 for the second.

With ETQYFWKLLNQLVLRGL [YJR042W/NUP85] the protein stability index was 2.18 ± 0.19.

Same assay, conditions: pdr5∆

Going from EGIIKPISKHSKQAIYT [RPS25A] to EGKVTKLRRECSNPTCG [RPS31], the protein stability index rises from 2.03 ± 0.057 to 3.16 ± 0.089.
